Data: patent EP2112164A1 (Institut Pasteur Of Shanghai, dated 2009)

Assays:
[1] = molecular target: HIV-1 envelope pDOL (subtype B) (HIV-1 (subtype B)); test: cell-based or functional assay
[2] = molecular target: HIV-1 envelope Q168 (subtype A) (HIV-1 (subtype A)); test: cell-based or functional assay

B1: scFv/hinge/his-tag/DAF (anti-HIV-1 gp41 scFv derived from human monoclonal antibody TG15, human IgG3 hinge region, 6 x his tag, GPI anchor replacement signal … (scFv)
scFv: QVQLQQWGAGLLKPSETLSLTCAVYGDSFGGHHWSWIRQPPGKGLEWIGEINFLGNTNYNPSLKSRVAISKDTSKNQFSLTLNSATAADTAVYFCARRETMETASRKRAFDIWGQGTMETVTVSAGGGGSGGGGSGGGGSAELMETTQSPPTLSASVGDRVTITCRASQSLSGWVAWYQQKPGKAPKLLIYKASTLESGVPSRFSGSGSGTVFALTISSLQPDDSATYYCQQHSAFSSTFGQGTKLEIKRTPLGDTTHTSGHHHHHHGSGTTSGTTRLLSGHTCFTLTGLLGTLVTMETGLLT
relative luciferase activity (RLA) in a single-cycle pseudotype infectivity assay, CEMss-GPI-scFv compared to CEMss-eGFP [1]: 8 fold reduction
relative luciferase activity (RLA) in a single-cycle pseudotype infectivity assay, CEMss-GPI-scFv compared to CEMss-eGFP [2]: 180 fold reduction
